Here are results for 8 molecules from patent publication US20120041175A1 (ROCKEFELLER UNIVERISTY, published 2012).

The target of assay [1] is Myc-Vps34/PtdIns3K (Myc-tagged hVps34) (human, UniProt Q8NEB9 1-887). Description: cell-based or functional assay.
The target of assay [2] is T1, Rubicon-EGFP (full-length mouse Rubicon tagged with EGFP at the C-terminus) (mouse, UniProt Q80U62 1-956).
T1 construct: also called EGFP-tagged Rubicon; GFP-tagged full-length Rubicon; not shown: EGFP tag at the C-terminus (pEGFP-N3 vector)
T1 sequence: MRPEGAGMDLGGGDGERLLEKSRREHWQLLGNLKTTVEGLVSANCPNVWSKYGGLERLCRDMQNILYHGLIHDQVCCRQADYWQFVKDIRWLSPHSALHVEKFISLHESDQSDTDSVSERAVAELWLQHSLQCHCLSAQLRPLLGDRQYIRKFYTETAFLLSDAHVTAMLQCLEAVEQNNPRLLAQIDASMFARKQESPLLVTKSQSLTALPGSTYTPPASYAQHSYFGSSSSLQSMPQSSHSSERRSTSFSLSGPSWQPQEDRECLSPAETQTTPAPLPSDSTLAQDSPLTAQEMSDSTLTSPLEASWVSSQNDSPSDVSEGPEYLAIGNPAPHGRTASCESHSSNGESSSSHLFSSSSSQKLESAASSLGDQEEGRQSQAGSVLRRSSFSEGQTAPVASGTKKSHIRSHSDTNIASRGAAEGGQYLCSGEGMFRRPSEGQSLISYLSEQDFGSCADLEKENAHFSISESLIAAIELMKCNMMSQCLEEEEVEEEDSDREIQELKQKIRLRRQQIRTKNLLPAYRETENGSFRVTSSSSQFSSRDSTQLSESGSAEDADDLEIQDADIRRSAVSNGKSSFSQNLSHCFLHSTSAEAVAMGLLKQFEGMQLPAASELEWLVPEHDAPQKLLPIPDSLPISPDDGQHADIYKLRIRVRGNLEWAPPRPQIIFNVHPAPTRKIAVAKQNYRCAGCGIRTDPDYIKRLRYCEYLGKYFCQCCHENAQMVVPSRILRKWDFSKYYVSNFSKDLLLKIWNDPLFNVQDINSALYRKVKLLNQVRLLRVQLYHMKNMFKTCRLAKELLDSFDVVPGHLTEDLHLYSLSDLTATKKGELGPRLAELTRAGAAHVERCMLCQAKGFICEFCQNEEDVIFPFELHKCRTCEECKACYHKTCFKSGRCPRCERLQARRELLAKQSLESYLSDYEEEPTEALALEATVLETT
Description: co-IP with anti-GFP antibody from co-transfected HEK 293T cells, anti-FLAG blot. The source says: (§1) FIG. 2A-E. Mapping of the binding domains that mediate the interaction between Beclin 1 and ATG14L/Rubicon. (A) Schematic representations of Beclin 1, ATG14L and Rubicon domain structures and the construction of multiple deletion mutants. The Beclin 1 mutants were tagged with FLAG at N-termini. The ATG14L or Rubicon mutants were tagged with EGFP at C-termini. (B) and (C) Domain mapping in Beclin 1 sequence required for binding ATG14L or Rubicon. HEK 293T cells were co-transfected with FLAG-tagged Beclin 1 mutant constructs and GFP-tagged full-length ATG14L […]. The immunoprecipitation was performed with anti-GFP antibody, followed by Western blotting with anti-FLAG antibody.
(§2) DNA plasmids were transfected into HEK 293T cells for immunoprecipitation. For Co-immunoprecipitation experiments, two or three plasmids were transfected simultaneously in equal amount. Cells were lysed in immunoprecipitation lysis buffer (20 mM HEPES, pH7.4/1 mM MgCl2/0.25 mM CaCl2/0.2% Triton X-100/150 mM NaCl/protease inhibitor and PMSF-pepstatin/DNaseI). For immunoprecipitation with GFP, ATG14L or Rubicon antibody, Dynabeads M-270 E-proxy (Invitrogen, Carlsbad, Calif.) were conjugated with each antibody, and incubated with cell lysate at 4° C. for 2 hours. After the beads were washed in ATG14L or Rubicon lysis buffer for 5 times, proteins were eluted by incubating beads in elution buffer (0.5 mM EDTA, pH8/0.5N NH₃.H₂O) at room temperature for 20 minutes and dried with vacuum speed centrifuge. For FLAG-tagged protein IP, Anti-FLAG M2 affinity resin (Sigma, St Louis, Mo.) was used and the manufacture's protocol was followed.

The target in assay [3] is T2, ATG14L-EGFP (full-length mouse ATG14L tagged with EGFP at the C-terminus) (mouse, UniProt Q8CDJ3 1-492).
T2 construct: Mouse cDNA cloned into pEGFP-N3 and expressed in HEK 293/293T or HeLa cells; also called EGFP-tagged ATG14L; GFP-tagged full-length ATG14L; not shown: EGFP tag at the C-terminus (pEGFP-N3 vector)
Described as above.
From the text: as §1, §2

Assay [4] concerns the target T1, Rubicon-EGFP (full-length mouse Rubicon …). Description: co-IP with anti-GFP antibody from co-transfected HEK 293T cells (FIG. 11).
The target in assay [5] is T2, ATG14L-EGFP (full-length mouse ATG14L …). The description is as above.
The target of assay [6] is T3, ATG14L (endogenous, mouse tissue or NIH 3T3 cells) (mouse, UniProt Q8CDJ3 1-492).
T3 construct: also called BISC
Kind of assay: co-IP of endogenous proteins with anti-ATG14L antibody from NIH 3T3 cell lysates, Western blot.

Assay [7] addresses T2, ATG14L-EGFP (full-length mouse ATG14L …). Description: co-IP with anti-GFP antibody from co-transfected HEK 293T cells; anti-FLAG blot.
From the text: as §1
DNA plasmids were transfected into HEK 293T cells for immunoprecipitation. For Co-immunoprecipitation experiments, two or three plasmids were transfected simultaneously in equal amount. Cells were lysed in immunoprecipitation lysis buffer (20 mM HEPES, pH7.4/1 mM MgCl2/0.25 mM CaCl2/0.2% Triton X-100/150 mM NaCl/protease inhibitor and PMSF-pepstatin/DNaseI). For immunoprecipitation with GFP, ATG14L or Rubicon antibody, Dynabeads M-270 E-proxy (Invitrogen, Carlsbad, Calif.) were conjugated with each antibody, and incubated with cell lysate at 4° C. for 2 hours. […]

Chain of Myc-Vps34/PtdIns3K (Myc-tagged hVps34) (Q8NEB9 whole entry): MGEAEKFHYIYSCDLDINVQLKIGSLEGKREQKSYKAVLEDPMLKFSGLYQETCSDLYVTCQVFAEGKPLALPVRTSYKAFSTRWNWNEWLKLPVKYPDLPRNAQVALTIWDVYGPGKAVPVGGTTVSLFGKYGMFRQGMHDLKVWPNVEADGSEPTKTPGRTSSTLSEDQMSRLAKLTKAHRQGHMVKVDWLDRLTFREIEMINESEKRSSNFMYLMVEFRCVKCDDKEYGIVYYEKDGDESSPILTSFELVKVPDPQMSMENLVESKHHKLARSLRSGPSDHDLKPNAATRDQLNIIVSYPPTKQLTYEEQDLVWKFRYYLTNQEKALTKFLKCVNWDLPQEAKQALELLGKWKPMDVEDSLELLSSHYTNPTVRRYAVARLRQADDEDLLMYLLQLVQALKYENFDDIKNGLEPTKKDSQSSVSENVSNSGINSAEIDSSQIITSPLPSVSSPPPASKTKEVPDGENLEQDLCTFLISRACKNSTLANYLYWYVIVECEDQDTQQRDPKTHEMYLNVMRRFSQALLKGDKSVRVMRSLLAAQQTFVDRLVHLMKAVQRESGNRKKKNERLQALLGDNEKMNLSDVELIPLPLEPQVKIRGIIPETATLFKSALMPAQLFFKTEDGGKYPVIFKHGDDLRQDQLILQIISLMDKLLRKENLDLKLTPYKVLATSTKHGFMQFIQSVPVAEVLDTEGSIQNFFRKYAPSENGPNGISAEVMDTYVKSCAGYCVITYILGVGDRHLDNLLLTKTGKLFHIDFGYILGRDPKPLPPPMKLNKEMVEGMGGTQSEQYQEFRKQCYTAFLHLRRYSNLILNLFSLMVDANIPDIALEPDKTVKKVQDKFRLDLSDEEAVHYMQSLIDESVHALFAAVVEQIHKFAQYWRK

B1: FLAG-Rubicon (mouse Rubicon tagged with FLAG at the N-terminus) (other, not shown: small tags and cut ends)
chain: MRPEGAGMDLGGGDGERLLEKSRREHWQLLGNLKTTVEGLVSANCPNVWSKYGGLERLCRDMQNILYHGLIHDQVCCRQADYWQFVKDIRWLSPHSALHVEKFISLHESDQSDTDSVSERAVAELWLQHSLQCHCLSAQLRPLLGDRQYIRKFYTETAFLLSDAHVTAMLQCLEAVEQNNPRLLAQIDASMFARKQESPLLVTKSQSLTALPGSTYTPPASYAQHSYFGSSSSLQSMPQSSHSSERRSTSFSLSGPSWQPQEDRECLSPAETQTTPAPLPSDSTLAQDSPLTAQEMSDSTLTSPLEASWVSSQNDSPSDVSEGPEYLAIGNPAPHGRTASCESHSSNGESSSSHLFSSSSSQKLESAASSLGDQEEGRQSQAGSVLRRSSFSEGQTAPVASGTKKSHIRSHSDTNIASRGAAEGGQYLCSGEGMFRRPSEGQSLISYLSEQDFGSCADLEKENAHFSISESLIAAIELMKCNMMSQCLEEEEVEEEDSDREIQELKQKIRLRRQQIRTKNLLPAYRETENGSFRVTSSSSQFSSRDSTQLSESGSAEDADDLEIQDADIRRSAVSNGKSSFSQNLSHCFLHSTSAEAVAMGLLKQFEGMQLPAASELEWLVPEHDAPQKLLPIPDSLPISPDDGQHADIYKLRIRVRGNLEWAPPRPQIIFNVHPAPTRKIAVAKQNYRCAGCGIRTDPDYIKRLRYCEYLGKYFCQCCHENAQMVVPSRILRKWDFSKYYVSNFSKDLLLKIWNDPLFNVQDINSALYRKVKLLNQVRLLRVQLYHMKNMFKTCRLAKELLDSFDVVPGHLTEDLHLYSLSDLTATKKGELGPRLAELTRAGAAHVERCMLCQAKGFICEFCQNEEDVIFPFELHKCRTCEECKACYHKTCFKSGRCPRCERLQARRELLAKQSLESYLSDYEEEPTEALALEATVLETT
For B1, the “Vps34 kinase activity (radioactive PtdIns(3)P normalized against immunoprecipitated Myc-tagged Vps34), over-expressed Rubicon against empty vector, in the absence of Beclin 1” value in assay [1] was 0.58 ratio.

B2: FLAG-Beclin 1 BD domain (aa 1-150) (other)
chain: MEGSKASSSTMQVSFVCQRCSQPLKLDTSFKILDRVTIQELTAPLLTTAQAKPGETQEEEANSGEEPFIETRQDGVSRRFIPPARMMSTESANSFTLIGEASDGGTMENLSRRLKVTGDLFDIMSGQTDVDHPLCEECTDTLLDQLDTQL
notes: not shown: FLAG tag at the N-terminus (pCMV-FLAG2 vector)
Consider B2, for which the binding result in assay [2] and in assay [3] was “no binding” in each case.

B3: FLAG-Beclin 1 ECD domain (aa 244-448) (other)
chain: ELKSVENQVRYAQIQLDKLKKTNVFNATFHIWHSGQFGTINNFRLGRLPSVPVEWNEINAAWGQTVLLLHALANKMGLKFQRYRLVPYGNHSYLESLTDKSKELPLYCSGGLRFFWDNKFDHAMVAFLDCVQQFKEEVEKGETRFCLPYRMDVEKGKIEDTGGSGGSYSIKTQFNSEEQWTKALKFMLTNLKWGLAWVSSQFYNK
notes: also called E (Evolutionarily conserved domain); FLAG-E; not shown: FLAG tag at the N-terminus (pCMV-FLAG2 vector)
Consider B3, for which the binding result in assay [2] and in assay [3] was “no binding” in each case.

B4: Beclin 1-AsRed (other)
chain: MEGSKASSSTMQVSFVCQRCSQPLKLDTSFKILDRVTIQELTAPLLTTAQAKPGETQEEEANSGEEPFIETRQDGVSRRFIPPARMMSTESANSFTLIGEASDGGTMENLSRRLKVTGDLFDIMSGQTDVDHPLCEECTDTLLDQLDTQLNVTENECQNYKRCLEILEQMNEDDSEQLQRELKELALEEERLIQELEDVEKNRKVVAENLEKVQAEAERLDQEEAQYQREYSEFKRQQLELDDELKSVENQVRYAQIQLDKLKKTNVFNATFHIWHSGQFGTINNFRLGRLPSVPVEWNEINAAWGQTVLLLHALANKMGLKFQRYRLVPYGNHSYLESLTDKSKELPLYCSGGLRFFWDNKFDHAMVAFLDCVQQFKEEVEKGETRFCLPYRMDVEKGKIEDTGGSGGSYSIKTQFNSEEQWTKALKFMLTNLKWGLAWVSSQFYNK
notes: Beclin 1 cDNA from mouse brain cloned into pAs-Red; not shown: AsRed fluorescent protein tag (pAs-Red vector)
Regarding B4, the binding result in assay [4] and in assay [5] was “binds” each time.

B5: endogenous Beclin 1 of NIH 3T3 cells / mouse tissue (other)
chain: MEGSKASSSTMQVSFVCQRCSQPLKLDTSFKILDRVTIQELTAPLLTTAQAKPGETQEEEANSGEEPFIETRQDGVSRRFIPPARMMSTESANSFTLIGEASDGGTMENLSRRLKVTGDLFDIMSGQTDVDHPLCEECTDTLLDQLDTQLNVTENECQNYKRCLEILEQMNEDDSEQLQRELKELALEEERLIQELEDVEKNRKVVAENLEKVQAEAERLDQEEAQYQREYSEFKRQQLELDDELKSVENQVRYAQIQLDKLKKTNVFNATFHIWHSGQFGTINNFRLGRLPSVPVEWNEINAAWGQTVLLLHALANKMGLKFQRYRLVPYGNHSYLESLTDKSKELPLYCSGGLRFFWDNKFDHAMVAFLDCVQQFKEEVEKGETRFCLPYRMDVEKGKIEDTGGSGGSYSIKTQFNSEEQWTKALKFMLTNLKWGLAWVSSQFYNK
notes: NIH 3T3 is a mouse cell line (inference)
Take B5: the binding result in assay [6] is on record as “binds”.

B6: FLAG-Beclin 1 CCD domain (aa 144-269) (other)
chain: DQLDTQLNVTENECQNYKRCLEILEQMNEDDSEQLQRELKELALEEERLIQELEDVEKNRKVVAENLEKVQAEAERLDQEEAQYQREYSEFKRQQLELDDELKSVENQVRYAQIQLDKLKKTNVFN
notes: aa 144-269 is printed for the CCD domain of Beclin 1; also called C (Coiled-coil domain); FLAG-C; not shown: FLAG tag at the N-terminus (pCMV-FLAG2 vector)
On to B6, for which the binding result in assay [2] was “no binding”; in assay [7] it was “binds”.

B7: FLAG-Beclin 1 BC (Bcl2-binding domain and Coiled-coil domain) (other)
chain: MEGSKASSSTMQVSFVCQRCSQPLKLDTSFKILDRVTIQELTAPLLTTAQAKPGETQEEEANSGEEPFIETRQDGVSRRFIPPARMMSTESANSFTLIGEASDGGTMENLSRRLKVTGDLFDIMSGQTDVDHPLCEECTDTLLDQLDTQLNVTENECQNYKRCLEILEQMNEDDSEQLQRELKELALEEERLIQELEDVEKNRKVVAENLEKVQAEAERLDQEEAQYQREYSEFKRQQLELDDELKSVENQVRYAQIQLDKLKKTNVFN
notes: also called FLAG-BC; not shown: FLAG tag at the N-terminus (pCMV-FLAG2 vector)
On to B7, for which the binding result in assay [2] is given as “no binding”.

B8: FLAG-ATG14L (mouse ATG14L tagged with FLAG at the N-terminus) (other, not shown: small tags and cut ends)
chain: MASPSGKGSWTPEAPGFGPRALARDLVDSVDDAEGLYVAVERCPLCNTTRRRLTCAKCVQSGDFVYFDGRDRERFIDKKERLSQLKNKQEEFQKEVLKAMEGKRLTDQLRWKIMSCKMRIEQLKQTICKGNEEMKKNSEGLLKNKEKNQKLYSRAQRHQEKKEKIQRHNRKLGDLVEKKTIDLKSHYERLARLRRSHILELTSIIFPIDEVKTSGRDPADVSSETDSAMTSSMVSKLAEARRTTYLSGRWVCDDHNGDTSISITGPWISLPNNGDYSAYYNWVEEKKTTQGPDMEHNNPAYTISAALGYATQLVNIVSHILDINLPKKLCNSEFCGENLSKQKLTRAVRKLNANILYLCSSQHVNLDQLQPLHTLRNLMHLVSPRSEHLGRSGPFEVRADLEESMEFVDPGVAGESDASGDERVSDEETDLGTDWENLPSPRFCDIPSQPVEVSQSQSTQVSPPIASSSAGGMISSAAASVTSWFKAYTGHR
In the case of B8, the “Vps34 kinase activity (radioactive PtdIns(3)P normalized against immunoprecipitated Myc-tagged Vps34), over-expressed ATG14L against empty vector, in the presence of Beclin 1” value in assay [1] came to 2.5 ratio.
